Data taken from paper PMC5623693, “Rb‐independent E2F3 promotes cell proliferation and alters expression of genes involved in metabolism and inflammation” (FEBS Open Bio, 2017).
No end group written: not given here. *: point of attachment. 5‑TAMRA = CN(C)c1ccc2c(-c3ccc(C(=O)*)cc3C(=O)[O-])c3ccc(N(C)C)cc3[o+]c2c1

T1: GST-pRb (aa379-928) (UniProt P06400 379-928)
T1 construct: retinoblastoma protein pRb, residues 379-928
T1 sequence (looked up): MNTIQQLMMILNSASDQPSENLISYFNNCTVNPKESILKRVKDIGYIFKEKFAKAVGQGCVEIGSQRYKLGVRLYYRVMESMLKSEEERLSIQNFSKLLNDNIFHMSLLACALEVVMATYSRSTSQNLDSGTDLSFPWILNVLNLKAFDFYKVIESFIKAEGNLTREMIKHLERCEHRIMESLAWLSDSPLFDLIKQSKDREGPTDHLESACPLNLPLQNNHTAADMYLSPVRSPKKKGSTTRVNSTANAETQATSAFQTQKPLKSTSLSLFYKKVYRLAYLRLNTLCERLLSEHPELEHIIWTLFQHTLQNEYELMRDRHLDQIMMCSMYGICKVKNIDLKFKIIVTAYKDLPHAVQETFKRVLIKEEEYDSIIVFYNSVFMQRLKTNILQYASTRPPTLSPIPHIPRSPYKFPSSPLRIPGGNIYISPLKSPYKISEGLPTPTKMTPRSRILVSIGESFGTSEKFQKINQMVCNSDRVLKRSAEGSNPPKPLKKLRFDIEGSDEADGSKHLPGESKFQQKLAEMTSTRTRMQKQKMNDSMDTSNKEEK


Key:
Experiment in all cases: fluorescence polarisation; TAMRA-labeled peptide (100 nM stock, 1 uL in 10 uL final) with purified protein serially diluted 1:2; 20 mM HEPES, 100 mM KCl, 0.1% Tween-20, 5 mM DTT, pH 7.8; 20 min in the dark at room temperature; Kd by Michaelis-Menten equation, least-squares nonlinear regression
[1] = target: Tamra-labeled E2F1 WT peptide (human)
[2] = target: Tamra-labeled E2F1-mutant peptide (L415Q) (human)
[3] = target: T1, GST-pRb (aa379-928); conditions: both partners purified

Kd [1] [µM] | Kd [2] [µM] | Kd [3] [µM] | Molecule
7 | 200 | – | HIS-p107 (aa379-1104) (domain or fragment)
– | – | 20 | {5‑TAMRA}-EALDYHFGQEEGEGIRDLFDCDFG (also called E2F1 L415Q peptide; LQ; source: synthetic peptide (Peptide 2.0)) [Tamra-labeled E2F1-mutant peptide (L415Q)]
– | – | ~3 | {5‑TAMRA}-EALDYHFGLEEGEGIRDLFDCDFG (L415 is the ninth letter; also called WT E2F1 peptide; E2F1 C-terminal peptide; source: synthetic peptide (United BioSystems)) [Tamra-labeled E2F1 WT peptide]
